The values below come from US20230406901A1.

The assay has as its target growth hormone receptor (GHR) on BAF3/GHR cells. In words: cell-based or functional assay.

“growth hormone fusion protein containing a flexible linker, GH(GGGGS)4 (from UniProt P01861 100-325) (Fc fusion)”: the EC50(nM), proliferation of BAF3/GHR cells (Alamar-Blue) was 3.19 nM and the Relative potency, proliferation of BAF3/GHR cells (Alamar-Blue) was found to be 37.7%.
